We go through 15 sequences from the supplement of paper PMC9170038.

For this data set, the system named is MS2 coat protein. The data set can be described thus: apparent KD of MS2 coat protein; designed switch direction (-1 OFF switch, 1 ON switch): -1; higher = weaker reporter binding. The method, boiled down:
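The buffer was Tris-HCl pH 7.5 with KCl, MgCl2, BSA, DTT, tRNA and Tween-20. In it, SNAP-549-labelled MS2 coat protein was titrated in doubling steps from 0.7 or 1.5 nM to 3 µM over chip-bound RNA switches transcribed by stalled E. coli RNA polymerase on Illumina chips. Apparent KD is the per-design median over clusters of curve fits to normalised fluorescence.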

The mark [1] stands for this setting: input ligand: microRNA oligo, concentration not stated.
[2] abbreviates: Eterna round: R95, input ligand: FMN 200 uM.
Setting [3] is: Eterna round: R95, input ligand: microRNA oligo, concentration not stated.
The mark [4] stands for this setting: Eterna round: R95, input ligand: none.

Regarding “GACUCAAUCCGAGGAUAUUGCCAGCGCUGCUAUCACAUGAGGAUCACCCAUGUAUCCUCGGCUUUCGAGAAGGCGGAUUGAGCG [Eternabot solution 35] (Eterna round: R96, puzzle: Exclusion NG 2)”, the “apparent KD of MS2 coat protein” value is, setting by setting: (input ligand: FMN 200 uM) 132 nM; under setting [1], 46.8 nM; (input ligand: none) 49.9 nM.

With “AGGCCUCGAGGAUAUACAUGAGGAUCACCCAUGUCAUAAUAGAUUGUUAUGAGACAUCGUAGAAGGCGAUGGCC [Eternabot (L2) Solution 98] (Eterna round: R97, puzzle: Exclusion 3)”, the “apparent KD of MS2 coat protein” value (input ligand: FMN 200 uM) turned out to be 78.1 nM and the “apparent KD of MS2 coat protein” value (input ligand: none) came to 30 nM.

With “GGGCCCGGUGUGAGGAUAUGCUCGGGUAAAUCUGGGUAGAAGGCACAUGAGGAUCACCCAUGUAAGCCGGGCCC [-34.4, -32.3 kcal, A 23%, 7bis-0] (Eterna round: R97, puzzle: Brourd's mod of Exclusion 4)”, the “apparent KD of MS2 coat protein” value reads like this: (input ligand: FMN 200 uM) 15.2 nM; (input ligand: none) 19.3 nM.

With “GAUUAUGCGAGCUUUAGGGACAUGAGGAUCACCCAUGUUCGUCUUAUUGAUCUGGAUGCACUAACAUACCUAAAUCU [JMF 27] (puzzle: Sensor v3, turn-off variant 1)”, the “apparent KD of MS2 coat protein” value reads like this: under setting [2], 51.1 nM; under setting [3], 64.6 nM; under setting [4], 49.3 nM.

As to “UGAUUGUUUACCAGGUUAUACAUGAGGAUCACCCAUGUAGAUCCUACGUGCGCGUUAUACCGCUCGUCUUAUUCCCA [Sensor-V1 #77] (Eterna round: R97, puzzle: Sensor, turn-off variant 1)”, the “apparent KD of MS2 coat protein” value came out at 19.1 nM (input ligand: FMN 200 uM) and 19.8 nM (input ligand: none).

Take “AAAAAACAAGGAUAUACGAAGGAGGAUUAUCUUAAUUUUUGACAUGAGGAUCACCCAUGUAGAAGGUGUUAAAA [JR_Exclusion2_Sub009] (puzzle: Exclusion 2)”: the “apparent KD of MS2 coat protein” value is 83.5 nM under setting [2], 38.2 nM under setting [3] and 48.4 nM under setting [4].

Turning to “GGUACUCAAAGAGUACCAAUACGAACAUGAGGAUCACCCAUGUAGGAUAUGCUACUCAAAGAGUAGCAGAAGGAUAUGAUGUAU [Far Half Aptamer v17] (Eterna round: R96, puzzle: Exclusion NG 3)”, the “apparent KD of MS2 coat protein” value under setting [1] was 27.6 nM.

As to “GAAAAGGUAGGAUAUACGAAAAAAAAGGGUAGAAAAAAAACACAUGAGGAUCACCCAUGUAGAAGGACCGAAAG [salish99_ex2_r3_037] (puzzle: Exclusion 2)”, the “apparent KD of MS2 coat protein” value under setting [2] came out at 58.5 nM, the “apparent KD of MS2 coat protein” value under setting [3] was found to be 36.8 nM and the “apparent KD of MS2 coat protein” value under setting [4] turned out to be 32.7 nM.

Take “AGGUGCUUCUGGAAACAUGAGGAUCACCCAUGUUGAGUUAGCGAGGAUAUCGGUAACAAUUGUUAUGAGAAGGCGCAAACCAGA [Ex NG3 #36] (Eterna round: R96, puzzle: Exclusion NG 3)”: the “apparent KD of MS2 coat protein” value reads like this: (input ligand: FMN 200 uM) 17 nM; under setting [1], 12.5 nM; (input ligand: none) 20.7 nM.

For “ACUAAACAUGUAGGAUAUGCGUGGCGAAGCUAUGCAGAAGGACAUGAGGAUCACCCAUGUUUUAGCGUCUGCGUACAGAUGCGU [JL ENG1 1.44] (Eterna round: R96, puzzle: Exclusion NG 1)”, the “apparent KD of MS2 coat protein” value came to 200 nM (input ligand: FMN 200 uM), 17.5 nM under setting [1] and 22.7 nM (input ligand: none).

“ACAAGCUUUUUGCAUCAAGCAUUAAAGUCUGUGAUCGUAACAUGAGGAUCACCCAUGUAAGUUUUAUGACGUCUUAU [JR_SV3TOV2_Sub096] (puzzle: Sensor v3, turn-off variant 2)”: the “apparent KD of MS2 coat protein” value under setting [2] was found to be 24.8 nM, the “apparent KD of MS2 coat protein” value under setting [3] turned out to be 39.8 nM and the “apparent KD of MS2 coat protein” value under setting [4] came to 25.3 nM.

On to “AAAAUGUCAGGAUAUUGUUAGUUUAGUUGUUUGUAUUAGUUCGAGAAGGGACAUGAGGAUCACCCAUGUUAAAA [Ex4 #67] (Eterna round: R97, puzzle: Exclusion 4)”, for which the “apparent KD of MS2 coat protein” value runs as follows: (input ligand: FMN 200 uM) 45.7 nM; (input ligand: none) 29.9 nM.

Regarding “AGUCUGCGAGGAUAUACAUGAGGAUCACCCAUGUGCGAGAUACUAGUGAGGUCGAUUGGUAGAAGGCGCGGACA [Mat - Exclusion 3 - Mod of JL D86] (puzzle: Exclusion 3)”, under setting [3], the “apparent KD of MS2 coat protein” value stood at 84.5 nM.

Regarding “GUCAGCUCGUCAGGAUAUACAUGAGGAUCACCCAUGUGGUCAAUAGCAGCUUCGGCUGCAAUAAUGUAGAAGGGACGAGCUGAC [ENG2/8-E] (Eterna round: R96, puzzle: Exclusion NG 2)”, the “apparent KD of MS2 coat protein” value (input ligand: FMN 200 uM) stood at 115 nM, the “apparent KD of MS2 coat protein” value under setting [1] came out at 301 nM and the “apparent KD of MS2 coat protein” value (input ligand: none) turned out to be 756 nM.

For “GGGAAGGGAGGAUAUGAGGAAGAGAACAUGAGGAUCACCCAUGUGAGGCCUCAGGAUCGAUCAGAAGGCCCGAUCC [AK-MS2ROC-r4-exclusion5-15] (Eterna round: R97, puzzle: Exclusion 5)”, the “apparent KD of MS2 coat protein” value turned out to be 297 nM (input ligand: FMN 200 uM) and 142 nM (input ligand: none).
